Measurements taken from article PMC4281351, “Heterogeneity of quaternary structure of glucosamine-6-phosphate deaminase from Giardia lamblia” (Parasitology Research, 2014).
Where “and” joins values, the source holds several entries; their conditions need not be identical. Identical values can stand only once.

Molecular target: the molecule itself
Assay: SEC; Superdex 200HR 10/300 GL; 0.5 ml applied, 0.5 ml/min; 50 mM potassium phosphate pH 7.0, 0.15 M NaCl; masses from a plot of log molecular mass versus Kav; fresh preparations and preparations stored for several hours at 4 °C or of higher protein concentration

Protein	stoichiometry N
wild-type glucosamine-6-phosphate deaminase of Giardia lamblia (GlmNagB) (enzyme, UniProt O97439 1-266, looked up, glucosamine-6-phosphate deaminase of Giardia lamblia, GPI1 (GN6PI) gene cloned from strain MR4; primers run from the start ATG to the stop codon; calculated mass 29.4 kDa; No tag (pETTopo-GlmNagB); In solution a mixture of monomer, homodimer and homotetramer; also called wild-type GlmNagB; native GlmNagB; source: E. coli BL21(DE3) pLysS, purified (streptomycin sulfate, ammonium sulfate, PEG, ion …)) MPSIHVSKCADPAIKLAHRIAEVVRSKPNCVLGLATGSTPIPVYQELARLHREEGLDFSQVRTFNLDEYAGLPPTHDQTYRFFMEEHLFSKVNIKPENVHFLNGMASDYEKECERYEQELKAIGPCDVWLLGIGHNGHIAFNEPGSPRDSRTRVVCLTQSTIDANARFFGNDKSKVPTKALSVGIATIMESREILLLATGESKREAVTKSVKGKCETHCPASFLHEHPHCRFYVDMDAGKVVDNTCCQATNQASCCGSTSCHAAKA	4 and 2
G. lamblia GlcN6P deaminase with C-terminal His6 fusion (GlmNagB-HisC) (enzyme, Giardia lamblia, UniProt O97439 1-266, looked up, glucosamine-6-phosphate deaminase of Giardia lamblia, GPI1 (GN6PI) gene cloned from strain MR4; forward primer from the start ATG, reverse primer adds six His codons after the last codon and then the stop; calculated mass 30.2 kDa with the tag; pETTopo-GlmNagB-HisC; hexaHis stands directly at the C-terminus; source: E. coli BL21(DE3) pLysS, purified (Ni2+-IDA agarose); not shown: His6, …) MPSIHVSKCADPAIKLAHRIAEVVRSKPNCVLGLATGSTPIPVYQELARLHREEGLDFSQVRTFNLDEYAGLPPTHDQTYRFFMEEHLFSKVNIKPENVHFLNGMASDYEKECERYEQELKAIGPCDVWLLGIGHNGHIAFNEPGSPRDSRTRVVCLTQSTIDANARFFGNDKSKVPTKALSVGIATIMESREILLLATGESKREAVTKSVKGKCETHCPASFLHEHPHCRFYVDMDAGKVVDNTCCQATNQASCCGSTSCHAAKA	4 and 2
G. lamblia GlcN6P deaminase with N-terminal His6 fusion (GlmNagB-HisN) (enzyme, Giardia lamblia, UniProt O97439 1-266, looked up, glucosamine-6-phosphate deaminase of Giardia lamblia, GPI1 (GN6PI) gene cloned from strain MR4; NdeI/BamHI insert from the start ATG to the stop codon in pET15b; calculated mass 31.7 kDa with the tag; source: E. coli BL21(DE3) pLysS, purified (Ni2+-IDA agarose); not shown: His6, N-terminal, kept) MPSIHVSKCADPAIKLAHRIAEVVRSKPNCVLGLATGSTPIPVYQELARLHREEGLDFSQVRTFNLDEYAGLPPTHDQTYRFFMEEHLFSKVNIKPENVHFLNGMASDYEKECERYEQELKAIGPCDVWLLGIGHNGHIAFNEPGSPRDSRTRVVCLTQSTIDANARFFGNDKSKVPTKALSVGIATIMESREILLLATGESKREAVTKSVKGKCETHCPASFLHEHPHCRFYVDMDAGKVVDNTCCQATNQASCCGSTSCHAAKA	4 and 2
